PMC11374805

Molecular target: peptidase domain (PD) of human ACE2 (human) (UniProt Q9BYF1)
Test: BLI

In the case of “RBD (319-541 a.a) of S protein from SARS-CoV-2 Omicron variant BA.2 (domain or fragment)”, the Kd is reported as 16 nM.
